# Target: trimeric SARS-CoV-2 spike (residues 1-1213), 986PP987, furin sites disrupted, C-terminal foldon and hexahistidine tag (SARS-CoV-2) (UniProt P0DTC2)
substance,measurement,value
2B04 Fab (papain-cleaved Fab form of 2B04),total buried surface area of the complex,656 Å2

# Source: patent WO2021212049A2
